Measurements reported in patent US20150152192A1 (SAMSUNG ELECTRONICS, published 2015).
Positions count from the first letter of the chain named.

B1: SAIT-ANG-2-AB-2-E6 (scFv form) (scFv, V domains shown)
VH: EVQLLESGGGLVQTGGSLRLSCAASGFTFSDYAMSWVRQAPGKGLEWVSAIYPDSGNKYYADSVKGRFTISRDNSKNTLYLQMNSLRAEDTAVYYCARHSSDPKVKSGYYDDGMDVWGQGTLVAVSS
VL: QSVLTQPPSASGTPGQRVTISCSGSSSNIGNNAVNWYQQLPGTAPKLLIYADSNRPSGVPDRFSGSKSGTSASLAISGLRSEDEADYYCGSWDYSLSGYVFGGGTKLTVLG
notes: scFv from a phage display library, partly purified from E. coli periplasm on Ni-NTA and detected with anti-HA
B2: SAIT-ANG-2-AB-7-C9 (scFv form) (scFv, V domains shown)
VH: EVQLLESGGGLVQPGGSLRLSCAASGFTFSNYAMSWVRQAPGKGLEWVSAISSGGGNIYYADSVKGRFTISRDNSKNTLYLQMNSLRAEDTAVYYCAKSGIQPSPPSMSSAYAMDVWGQGTLVTVSS
VL: B1 VL with A33D, N35Y, D52N, N54H, S91T
notes: scFv from a phage display library
B3: SAIT-ANG-2-AB-3-D3 (scFv form) (scFv, V domains shown)
VH: EVQLLESGGGLVQPGGSLRLSCAASGFTFSDYDMSWVRQAPGKGLEWVSGISSDDGNTYYADSVKGRFTISRDNSKNTLYLQMNSLRAEDTAVYYCARPTIDKYTLRGYYSYGMDVWGQGTLVTVSS
VL: B1 VL with S23T, N31S, A33Y, N35S, A51S, S53N, N54K, S91T, Y94D, S97N
notes: as for B2
B4: SAIT-ANG-2-AB-4-C11 (scFv form) (scFv, V domains shown)
VH: EVQLLESGGGLVQPGGSLRLSCAASGFTFSDYAMSWVRQAPGKGLEWVSSIYPDDGNTYYADSVKGRFTISRDNSKNTLYLQMNSLRAEDTAVYYCARHTSHHTSIDGYYYYGMDGWGQGTLVTVSS
VL: B1 VL with S23T, A33D, N35S, A51S, N54K
notes: as for B2
B5: SAIT-ANG-2-AB-4-F5 (scFv form) (scFv, V domains shown)
VH: EVQLLESGGGLVQPGGSLRLSCAASGFTFSDYDMSWVRQAPGKGLEWVSSISHGDSNKYYADSVKGRFTISRDNSKNTLYLQMNSLRAEDTAVYYCAKSSGIQESPPTYYYYGMDVWGQGTLVTVSS
VL: B1 VL with N31S
notes: as for B2
B6: SAIT-ANG-2-AB-4-F11 (scFv form) (scFv, V domains shown)
VH: EVQLLESGGGLVQTGGSLRLSCAASGFTFSDYAMSWVRQAPGKGLEWVSSIYPDDGNTYYADSVKGRFTISRDNSKNTLYLQMNSLRAEDTAVYYCAKHPVRLNLHPMYYYYGMDVWGQGTLVTVSS
VL: B1 VL with S23T, N35S, A51S, N54Q, G90A, S91T, G98A
notes: as for B2
B7: SAIT-ANG-2-AB-8-A5 (scFv form) (scFv, V domains shown)
VH: EVQLLESGGGLVQPGGSLRLSCAASGFTFSDYYMSWVRQAPGKGLEWVSGIYPSGGSTYYADSVKGRFTISRDNSKNTLYLQMNSLRAEDTAVYYCARDPSTLTYAGFDYWGQGTLVTVSS
VL: B1 VL with A33Y, N35T, N54H, G90A, S91T
notes: as for B2

Target: Ang2 with A449 mutated with alanine, tagged with FLAG (human) (UniProt O15123)
Test: ELISA, scFv coated, 250 ng FLAG-tagged Ang2 mutant, anti-FLAG-HRP

Ang2 with A449 mutated with alanine, tagged with FLAG (human), sequence (O15123 other isoform, or with tags, fused parts or gaps, change not shown): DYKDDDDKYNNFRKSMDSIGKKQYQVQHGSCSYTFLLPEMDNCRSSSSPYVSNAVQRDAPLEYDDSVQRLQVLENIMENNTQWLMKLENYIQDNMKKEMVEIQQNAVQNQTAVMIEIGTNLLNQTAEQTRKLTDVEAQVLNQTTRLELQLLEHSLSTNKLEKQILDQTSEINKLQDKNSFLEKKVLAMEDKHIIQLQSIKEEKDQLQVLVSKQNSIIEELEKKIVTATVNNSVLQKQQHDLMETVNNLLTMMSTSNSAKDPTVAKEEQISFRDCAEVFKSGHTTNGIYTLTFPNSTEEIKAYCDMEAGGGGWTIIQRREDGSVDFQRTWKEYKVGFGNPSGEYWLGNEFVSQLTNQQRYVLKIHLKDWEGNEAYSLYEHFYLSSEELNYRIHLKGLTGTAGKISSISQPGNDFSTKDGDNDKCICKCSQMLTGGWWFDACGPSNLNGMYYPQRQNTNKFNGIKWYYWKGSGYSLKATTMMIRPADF

| Binder | Relative binding (%) with Mutant Ang2 compared to the binding with native Ang2 |
| --- | --- |
| B1 | 3.3% |
| B2 | 14.5% |
| B3 | 101% |
| B4 | 4.8% |
| B5 | 14% |
| B6 | 16.7% |

Target: T1, Ang2 with I434 mutated with alanine, tagged with FLAG (human, UniProt O15123 19-496, limits assumed)
T1 sequence: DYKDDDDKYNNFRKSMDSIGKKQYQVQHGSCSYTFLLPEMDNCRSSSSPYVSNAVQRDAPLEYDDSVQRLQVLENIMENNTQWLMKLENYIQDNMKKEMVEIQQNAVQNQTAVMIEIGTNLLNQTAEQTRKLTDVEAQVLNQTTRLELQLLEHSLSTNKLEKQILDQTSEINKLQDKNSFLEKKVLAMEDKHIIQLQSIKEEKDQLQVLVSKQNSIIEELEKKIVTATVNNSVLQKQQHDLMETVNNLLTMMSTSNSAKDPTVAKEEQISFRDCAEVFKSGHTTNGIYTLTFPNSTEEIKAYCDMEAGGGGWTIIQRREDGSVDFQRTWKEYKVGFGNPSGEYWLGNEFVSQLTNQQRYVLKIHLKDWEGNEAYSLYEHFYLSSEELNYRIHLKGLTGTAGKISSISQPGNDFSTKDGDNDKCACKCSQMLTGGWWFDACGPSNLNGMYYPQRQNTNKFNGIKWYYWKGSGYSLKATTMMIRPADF
Test: as above
Procedure: (§1) A 96-well MaxiSorp™ flat-bottom plate (Nunc) was coated with 50 μl of the anti-Ang2 scFv selected above. After that, the plate was washed five times with 0.05% (v/v) Tween-20-containing PBS and then blocked with 1% (v/v) BSA-containing PBS at a room temperature for 2 hours. […] Thereafter, the plate was washed five times with 0.05% Tween-20-containing PBS and then, an HRP-conjugated anti-FLAG antibody (SIGMA) diluted in 1% (v/v) BSA-containing PBS at 1:5,000 ratio (v/v) was added in the amount of 50 μl to each well to react at a room temperature for 1 hour, followed by washing five times with 0.1% (v/v) Tween-20-containing PBS.
(§2) Finally, 100 μl of TMB substrate (cell signal) was added to each well of the plate to induce color development and then, the reaction was ceased by the addition of 50 μl of 5N H₂SO₄ solution and OD450 values were measured on a plate reader (Molecular Devices).

| Binder | Relative binding (%) with Mutant Ang2 compared to the binding with native Ang2 |
| --- | --- |
| B1 | 5.3% |
| B2 | 8.7% |
| B3 | 93.4% |
| B4 | 7.2% |
| B5 | 68.6% |
| B6 | 69% |
| B7 | 4% |

Target: T2, Ang2 with P452 mutated with alanine, tagged with FLAG (human, UniProt O15123 19-496, limits assumed)
T2 sequence: T1 sequence with A424I, P442A
Test: as above
Procedure: as §1, §2

| Binder | Relative binding (%) with Mutant Ang2 compared to the binding with native Ang2 |
| --- | --- |
| B1 | 24% |
| B2 | 85% |
| B3 | 97.3% |
| B4 | 70% |
| B5 | 15% |
| B6 | 91.6% |
| B7 | 86.5% |

Target: T3, FLAG-Tagged hAng2 (human, UniProt O15123 19-496, limits assumed)
T3 construct: also called FLAG-Ang2; non-mutated Ang2
T3 sequence: T1 sequence with A424I
Test: competitive ELISA: hTie2-Fc coated, 400 ng/ml FLAG-hAng2 plus scFv, anti-FLAG-HRP
Procedure: To verify molecular interaction of the bound assemblies, a competitive ELISA was performed. A 96-well MaxiSorp™ flat-bottom plate (Nunc) was coated with […] of hTie2-Fc (R&D Systems), which is a protein with the Fc of human IgG1 bound thereto. After that, the plate was washed five times with 0.05% (v/v) Tween-20-containing PBS (Phosphate Buffer Saline) and then blocked with 1% (v/v) BSA (Bovine serum albumin; Sigma)-containing PBS at a room temperature for 2 hours.
Thereafter, the plate was washed five times with 0.05% Tween-20-containing PBS and then, an HRP-conjugated anti-FLAG antibody (SIGMA) diluted in 1% (v/v) BSA-containing PBS at 1:5,000 ratio (v/v) was added in the amount of 100 μl (microliter) to each well to react at a room temperature for 1 hour, followed by washing five times with 0.1% (v/v) Tween-20-containing PBS. Finally, 100 μl (microliter) of TMB substrate (cell signal) was added to each well of the plate to induce color development at a room temperature for 3 min. Then, the reaction was ceased by the addition of 50 μl of 5N H₂SO₄ solution and OD450 values were measured on a plate reader (Molecular Devices).

| Binder | IC50 |
| --- | --- |
| B1 | 0.0189 µM |
| B2 | 0.0397 µM |
| B3 | 0.0099 µM |
| B4 | 0.0065 µM |
| B5 | 0.01 µM |
| B6 | 0.0066 µM |
| B7 | 0.0363 µM |
